Biological target: L1.3 ORF2p-3×FLAG (human, UniProt O00370 1-1275)
Assay: co-IP; ORF2p-3×FLAG precipitated with anti-FLAG from lysate of HEK293T cells transfected with pTMF3 together with pCMV-3Tag-9, HERC5 or MOV10 vector; ORF1p-T7 detected by anti-T7 blot, band intensities given as ORF1p/ORF2p ratio relative to the control; pTMH3 as negative control
Conditions: partners not purified

L1.3 ORF2p-3×FLAG, sequence (O00370 whole entry): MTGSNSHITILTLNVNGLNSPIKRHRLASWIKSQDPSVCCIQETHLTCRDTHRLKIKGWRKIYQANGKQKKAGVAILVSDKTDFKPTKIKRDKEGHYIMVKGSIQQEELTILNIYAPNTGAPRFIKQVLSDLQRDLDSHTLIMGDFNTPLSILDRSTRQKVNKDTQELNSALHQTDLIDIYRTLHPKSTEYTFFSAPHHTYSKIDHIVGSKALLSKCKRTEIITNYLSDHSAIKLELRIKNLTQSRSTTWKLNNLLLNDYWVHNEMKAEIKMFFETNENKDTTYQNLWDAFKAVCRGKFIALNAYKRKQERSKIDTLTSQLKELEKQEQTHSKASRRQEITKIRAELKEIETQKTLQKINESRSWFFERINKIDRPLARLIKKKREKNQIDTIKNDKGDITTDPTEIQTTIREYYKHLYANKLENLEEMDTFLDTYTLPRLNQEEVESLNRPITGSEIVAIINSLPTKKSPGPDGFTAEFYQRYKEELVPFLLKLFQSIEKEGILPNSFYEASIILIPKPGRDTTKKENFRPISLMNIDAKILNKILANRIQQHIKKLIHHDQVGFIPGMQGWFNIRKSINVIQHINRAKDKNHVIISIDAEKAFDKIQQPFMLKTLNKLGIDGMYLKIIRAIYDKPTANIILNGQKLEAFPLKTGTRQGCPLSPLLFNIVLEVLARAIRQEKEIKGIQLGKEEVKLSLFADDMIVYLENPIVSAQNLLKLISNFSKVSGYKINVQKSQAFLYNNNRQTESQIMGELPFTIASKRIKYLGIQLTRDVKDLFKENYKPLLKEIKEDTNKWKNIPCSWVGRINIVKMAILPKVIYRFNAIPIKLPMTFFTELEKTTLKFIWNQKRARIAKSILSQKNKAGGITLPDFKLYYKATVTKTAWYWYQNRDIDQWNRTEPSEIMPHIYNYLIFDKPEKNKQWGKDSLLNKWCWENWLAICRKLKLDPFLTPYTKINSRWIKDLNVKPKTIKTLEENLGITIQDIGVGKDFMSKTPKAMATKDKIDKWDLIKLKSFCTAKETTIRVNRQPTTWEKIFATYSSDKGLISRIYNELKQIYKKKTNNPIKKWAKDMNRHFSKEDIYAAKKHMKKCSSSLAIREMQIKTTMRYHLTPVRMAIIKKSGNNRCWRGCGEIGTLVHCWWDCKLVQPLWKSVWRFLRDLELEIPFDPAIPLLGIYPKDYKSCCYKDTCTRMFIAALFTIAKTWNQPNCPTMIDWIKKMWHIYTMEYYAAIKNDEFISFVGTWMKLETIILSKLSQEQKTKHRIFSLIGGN

B1: L1.3 ORF1p-T7 (natural protein)
chain: MGKKQNRKTGNSKTQSASPPPKERSSSPATEQSWMENDFDELREEGFRRSNYSELREDIQTKGKEVENFEKNLEECITRITNTEKCLKELMELKTKARELREECRSLRSRCDQLEERVSAMEDEMNEMKREGKFREKRIKRNEQSLQEIWDYVKRPNLRLIGVPESDVENGTKLENTLQDIIQENFPNLARQANVQIQEIQRTPQRYSSRRATPRHIIVRFTKVEMKEKMLRAAREKGRVTLKGKPIRLTADLSAETLQARREWGPIFNILKEKNFQPRISYPAKLSFISEGEIKYFIDKQMLRDFVTTRPALKELLKEALNMERNNRYQPLQNHAKM
notes: ORF1p of the human LINE-1 element L1.3, expressed from the full-length L1.3 in pTMF3 or pTMH3; residues counted from the first methionine of L1.3 ORF1p; From pTMH3 in the HERC5-3×FLAG IP and from pTMF3 in the ORF2p-3×FLAG IP; source: HEK293T, transfected, in lysate
decrease of the ORF1p/ORF2p ratio in the ORF2p-3×FLAG IP with HERC5 overexpression, against the empty vector: ~60%
